According to US20250327097A1, “ORGANISMS PRODUCING LESS CROTONIC ACID” (Global Bioenergies, priority 2021, published 2025):
Positions count from the first letter of the chain named. Names and notes keep the numbering of the source.

B1: I283T-P284D-N287P-S322T-N388M-E421V-R422F-C430N-L432F-L434W-S436N-dG462-A463T (protein)
chain: MFLKSLREQINLLKRQGDLRIINRPVDSYLEAAAIIRRSTETKAPVPLMTNIKGYPGCSIVGGLAALSSNPEYPLSRVAMSLGLSTTASAQSIVQYLIDGLKKTPYLPVEIDSNSAPCKQNILRGEDASLAHFPIPQVHQHDGNRYVNTWGVFIVESPDGQWCNWSIQRVQYLNDRQMIALVFPSQHISDIWEEWVKIGKPMPYALVQGCEPIVPYIAGLPLLERNVNEAEYIGALYGKGIEVVKCETHDLRVPASSEVVIEGYFAITREGVEGPFGEFAGYTDNEPSLQPILSITAISWQDDPIWPVVAEGKPVDEYHTCTGIGDAAAIQNVLLTANLPVSFVWVPLYSACHLMIVSINRHWRQTHPDLTSEQLTKKVGDVIHQTRMSIKLPKIVVLDDDVDPADTESLLWALATRIHPVFKRYFYESNIFPWLNCYSEEERHNRKGKRVIIDALLPENHGTISSFDYAYPDDIKQRVLMHWETDFSHD
B2: I283T-P284D-N287P-S322T-N388M-E421V-C430N-L432F-L434W-S436N-H461V-dG462-A463T (protein)
chain: B1 chain with F422R, H461V
B3: I283T-N285P-N287T-Q290E-S322T-N388M-K394R-C430A-L432F-L434W-S436N-dG462 (protein)
chain: B1 chain with D284P, N285P, P287T, Q290E, K394R, V421E, F422R, N430A, T463A
B4: I283T-P284D-N287P-S322T-N388M-R422F-C430N-L432F-L434W-S436N-H461T-dG462-A463T (protein)
chain: B1 chain with V421E, H461T
B5: I283T-P284D-N287P-S322T-N388M-R422F-C430N-L432F-L434W-S436N-dG462 (protein)
chain: B1 chain with V421E, T463A
B6: I283T-P284D-N287P-S322T-N388M-E421V-C430N-L432F-L434W-S436N-dG462 (protein)
chain: B1 chain with F422R, T463A
B7: I283T-P284D-N287P-S322T-N388M-R422F-C430N-L432F-L434W-S436N-H461V-dG462-A463T (protein)
chain: B1 chain with V421E, H461V
B8: I283T-P284D-N287P-S322T-N388M-E421V-C430N-L432F-L434W-S436N-H461T-dG462-A463T (protein)
chain: B1 chain with F422R, H461T
B9: I283T-P284D-N287P-S322T-N388M-E421V-R422F-C430N-L432F-L434W-S436N-H461V-dG462-A463T (protein)
chain: B1 chain with H461V
B10: N285M-N388M-K394R-C430N-L432F-L434W-S436N (protein)
chain: B1 chain with T283I, D284P, N285M, P287N, T322S, K394R, V421E, F422R, T463A
B11: I283T-P284D-N287P-S322T-N388M-E421V-R422F-C430N-L432F-L434W-S436N-H461T-dG462-A463T (protein)
chain: B1 chain with H461T
B12: I283T-N285P-N287T-Q290E-S322T-N388M-K394R-C430A-L432F-L434W-S436N-dH461 (protein)
chain: B1 chain with D284P, N285P, P287T, Q290E, K394R, V421E, F422R, N430A, T463A

system: 3-methylcrotonic acid; type: biochemical, Yersinia frederiksenii; set-up: key: “+” representing a low increase in activity; “++++” representing a high increase in activity

Molecule	Activity relative to WT
B1	++++
B2	++++
B3	++++
B4	++++
B5	++++
B6	++++
B7	++++
B8	++++
B9	++++
B10	+
B11	++++
B12	++++
